The values below come from the supplement of paper PMC5998384.

The subject of data set [1] is HeLa Kyoto. As to the kind of experiment: thermal stability score vs G1/S (z-score of summed log2 fold changes over temperatures); higher = more thermally stable than in G1/S.
Data set [2] concerns HeLa Kyoto. As to the kind of experiment: melting temperature (median over replicates), in situ; higher = more thermally stable.
Data set [3] has as its system HeLa Kyoto. As to the kind of experiment: solubility in G1/S (NP-40 vs SDS abundance) (log2 ratio); higher = more soluble. The conditions noted are these: cell cycle stage: G1/S.
For data set [4], the system named is HeLa Kyoto. As to the kind of experiment: solubility change mitosis vs G1/S (difference of NP-40 vs SDS log2 ratios) (log2 ratio difference); higher = more soluble in mitosis.
The mark [5] stands for this setting: cell cycle stage: early G1 (4.5 h after nocodazole release).
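For melting temperature (median over replicates), in situ in this document: HeLa Kyoto cells synchronized by double thymidine or nocodazole block, proteins quantified by TMT10plex mass spectrometry, three independent biological replicates.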
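For solubility change mitosis vs G1/S (difference of NP-40 vs SDS log2 ratios) in this document: synchronized HeLa Kyoto cells (double thymidine block for G1/S, nocodazole release for mitosis), protein amounts in NP-40 versus SDS lysates quantified by mass spectrometry, three biological replicates.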
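For solubility in G1/S (NP-40 vs SDS abundance) in this document: HeLa Kyoto cells arrested at G1/S by double thymidine block, proteins quantified by TMT10plex mass spectrometry in mild NP-40 versus SDS extracts, three biological replicates.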
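For thermal stability score vs G1/S (z-score of summed log2 fold changes over temperatures) in this document: synchronized HeLa Kyoto cells, proteins quantified by TMT10plex mass spectrometry, three biological replicates, mitosis taken 0.5 h after nocodazole release, G1/S directly after double thymidine block.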

Turning to “MSAAKENPCRKFQANIFNKSKCQNCFKPRESHLLNDEDLTQAKPIYGGWLLLAPDGTDFDNPVHRSRKWQRRFFILYEHGLLRYALDEMPTTLPQGTINMNQCTDVVDGEGRTGQKFSLCILTPEKEHFIRAETKEIVSGWLEMLMVYPRTNKQNQKKKRKVEPPTPQEPGPAKVAVTSSSSSSSSSSSIPSAEKVPTTKSTLWQEEMRTKDQPDGSSLSPAQSPSQSQPPAASSLREPGLESKEEESAMSSDRMDCGRKVRVESGYFSLEKTKQDLKAEEQQLPPPLSPPSPSTPNHRRSQVIEKFEALDIEKAEHMETNAVGPSPSSDTRQGRSEKRAFPRKRDFTNEAPPAPLPDASASPLSPHRRAKSLDRRSTEPSVTPDLLNFKKGWLTKQYEDGQWKKHWFVLADQSLRYYRDSVAEEAADLDGEIDLSACYDVTEYPVQRNYGFQIHTKEGEFTLSAMTSGIRRNWIQTIMKHVHPTTAPDVTSSLPEEKNKSSCSFETCPRPTEKQEAELGEPDPEQKRSRARERRREGRSKTFDWAEFRPIQQALAQERVGGVGPADTHEPLRPEAEPGELERERARRREERRKRFGMLDATDGPGTEDAALRMEVDRSPGLPMSDLKTHNVHVEIEQRWHQVETTPLREEKQVPIAPVHLSSEDGGDRLSTHELTSLLEKELEQSQKEASDLLEQNRLLQDQLRVALGREQSAREGYVLQATCERGFAAMEETHQKKIEDLQRQHQRELEKLREEKDRLLAEETAATISAIEAMKNAHREEMERELEKSQRSQISSVNSDVEALRRQYLEELQSVQRELEVLSEQYSQKCLENAHLAQALEAERQALRQCQRENQELNAHNQELNNRLAAEITRLRTLLTGDGGGEATGSPLAQGKDAYELEVLLRVKESEIQYLKQEISSLKDELQTALRDKKYASDKYKDIYTELSIAKAKADCDISRLKEQLKAATEALGEKSPDSATVSGYDIMKSKSNPDFLKKDRSCVTRQLRNIRSKSVIEQVSWDT [MPRIP]”, the thermal stability score in the data set with HeLa Kyoto [1] (setting [5]) was -0.81; in the data set on HeLa Kyoto [1] (cell cycle stage: mitosis) it was -1.05. In addition, the results for the melting temperature with HeLa Kyoto [2] (cell cycle stage: G1/S) and with HeLa Kyoto [2] (cell cycle stage: mitosis) were 51.9 °C and 52.6 °C, respectively. Further, the “solubility in G1/S (log2)” value in the data set on HeLa Kyoto [3] was -1.2. Moreover, in the data set with HeLa Kyoto [4], the “solubility change mitosis (log2)” value was found to be 0.41.
For “MSAFSEAALEKKLSELSNSQQSVQTLSLWLIHHRKHSRPIVTVWERELRKAKPNRKLTFLYLANDVIQNSKRKGPEFTKDFAPVIVEAFKHVSSETDESCKKHLGRVLSIWEERSVYENDVLEQLKQALYGDKKPRKRTYEQIKVDENENCSSLGSPSEPPQTLDLVRALQDLENAASGDAAVHQRIASLPVEVQEVSLLDKITDKESGERLSKMVEDACMLLADYNGRLAAEIDDRKQLTRMLADFLRCQKEALAEKEHKLEEYKRKLARVSLVRKELRSRIQSLPDLSRLPNVTGSHMHLPFAGDIYSED [RPRD1A]”, the thermal stability score in the data set on HeLa Kyoto [1] (setting [5]) was 1.27; in the data set on HeLa Kyoto [1] (cell cycle stage: mitosis) it was 1.64. Also, the melting temperature in the data set on HeLa Kyoto [2] (cell cycle stage: G1/S) amounted to 48 °C; in the data set on HeLa Kyoto [2] (cell cycle stage: mitosis), 49.5 °C. The “solubility in G1/S (log2)” value in the data set with HeLa Kyoto [3] was determined as 0.66. Besides, the “solubility change mitosis (log2)” value with HeLa Kyoto [4] was -0.0443.
In the case of “MSAIQAAWPSGTECIAKYNFHGTAEQDLPFCKGDVLTIVAVTKDPNWYKAKNKVGREGIIPANYVQKREGVKAGTKLSLMPWFHGKITREQAERLLYPPETGLFLVRESTNYPGDYTLCVSCDGKVEHYRIMYHASKLSIDEEVYFENLMQLVEHYTSDADGLCTRLIKPKVMEGTVAAQDEFYRSGWALNMKELKLLQTIGKGEFGDVMLGDYRGNKVAVKCIKNDATAQAFLAEASVMTQLRHSNLVQLLGVIVEEKGGLYIVTEYMAKGSLVDYLRSRGRSVLGGDCLLKFSLDVCEAMEYLEGNNFVHRDLAARNVLVSEDNVAKVSDFGLTKEASSTQDTGKLPVKWTAPEALREKKFSTKSDVWSFGILLWEIYSFGRVPYPRIPLKDVVPRVEKGYKMDAPDGCPPAVYEVMKNCWHLDAAMRPSFLQLREQLEHIKTHELHL [CSK]”, the thermal stability score is -0.12 in the data set with HeLa Kyoto [1] (setting [5]) and 0.74 with HeLa Kyoto [1] (cell cycle stage: mitosis). The melting temperature in the data set on HeLa Kyoto [2] (cell cycle stage: G1/S) is 49.3 °C; in the data set with HeLa Kyoto [2] (cell cycle stage: mitosis), 49.8 °C. Besides, the “solubility in G1/S (log2)” value in the data set with HeLa Kyoto [3] stood at 0.0872. Further, in the data set with HeLa Kyoto [4], the “solubility change mitosis (log2)” value was -0.139.
Take “MSAKAISEQTGKELLYKFICTTSAIQNRFKYARVTPDTDWARLLQDHPWLLSQNLVVKPDQLIKRRGKLGLVGVNLTLDGVKSWLKPRLGQEATVGKATGFLKNFLIEPFVPHSQAEEFYVCIYATREGDYVLFHHEGGVDVGDVDAKAQKLLVGVDEKLNPEDIKKHLLVHAPEDKKEILASFISGLFNFYEDLYFTYLEINPLVVTKDGVYVLDLAAKVDATADYICKVKWGDIEFPPPFGREAYPEEAYIADLDAKSGASLKLTLLNPKGRIWTMVAGGGASVVYSDTICDLGGVNELANYGEYSGAPSEQQTYDYAKTILSLMTREKHPDGKILIIGGSIANFTNVAATFKGIVRAIRDYQGPLKEHEVTIFVRRGGPNYQEGLRVMGEVGKTTGIPIHVFGTETHMTAIVGMALGHRPIPNQPPTAAHTANFLLNASGSTSTPAPSRTASFSESRADEVAPAKKAKPAMPQDSVPSPRSLQGKSTTLFSRHTKAIVWGMQTRAVQGMLDFDYVCSRDEPSVAAMVYPFTGDHKQKFYWGHKEILIPVFKNMADAMRKHPEVDVLINFASLRSAYDSTMETMNYAQIRTIAIIAEGIPEALTRKLIKKADQKGVTIIGPATVGGIKPGCFKIGNTGGMLDNILASKLYRPGSVAYVSRSGGMSNELNNIISRTTDGVYEGVAIGGDRYPGSTFMDHVLRYQDTPGVKMIVVLGEIGGTEEYKICRGIKEGRLTKPIVCWCIGTCATMFSSEVQFGHAGACANQASETAVAKNQALKEAGVFVPRSFDELGEIIQSVYEDLVANGVIVPAQEVPPPTVPMDYSWARELGLIRKPASFMTSICDERGQELIYAGMPITEVFKEEMGIGGVLGLLWFQKRLPKYSCQFIEMCLMVTADHGPAVSGAHNTIICARAGKDLVSSLTSGLLTIGDRFGGALDAAAKMFSKAFDSGIIPMEFVNKMKKEGKLIMGIGHRVKSINNPDMRVQILKDYVRQHFPATPLLDYALEVEKITTSKKPNLILNVDGLIGVAFVDMLRNCGSFTREEADEYIDIGALNGIFVLGRSMGFIGHYLDQKRLKQGLYRHPWDDISYVLPEHMSM [ACLY]”: the figures for the thermal stability score with HeLa Kyoto [1] (setting [5]) and in the data set on HeLa Kyoto [1] (cell cycle stage: mitosis) were 2.8 and 4.04, respectively. For the same sequence, the melting temperature in the data set on HeLa Kyoto [2] (cell cycle stage: G1/S) came to 52.2 °C; with HeLa Kyoto [2] (cell cycle stage: mitosis), 52.6 °C. The “solubility in G1/S (log2)” value with HeLa Kyoto [3] is -0.0323. Besides, the “solubility change mitosis (log2)” value with HeLa Kyoto [4] was -0.156.
